Reference: US20220396632A1 (VERSEAU THERAPEUTICS, published 2022)
Non-standard residues stand in square brackets, D forms with d. No end group written: not given here. *: point of attachment. Biotin = O=C1N[C@H]2[C@H](CS[C@H]2CCCCC(=O)*)N1; sY = N[C@@H](Cc1ccc(OS(=O)(=O)O)cc1)C(=O)O

T1: Sulfotyr fibrinogen γ peptide (not fully specified; Y8 and Y12 sulfated (SO3); C-terminal biotin)
T1 construct: also called Fibrinogen gamma peptide; human sulfotyrosinylated fibrinogen peptide
T1 peptide: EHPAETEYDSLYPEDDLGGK

T2: SulfoTyr C4 peptide (not fully specified; Y4, Y7 and Y9 sulfated (SO3); C-terminal biotin)
T2 construct: also called C4 alpha chain peptide; human sulfotyrosinylated C4 peptide
T2 peptide: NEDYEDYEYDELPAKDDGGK

T3: Human fibrinogen protein (ThermoFisher, RP-43142) (human, UniProt P02671 20-629; P02675 31-491; P02679 27-453, limits assumed, natural sulfotyrosines)
T3 construct: mature; Native dimer with 3 pairs of non-identical chains; also called gamma-fibrinogen; γ fibrinogen protein
T3 sequence (looked up) 1: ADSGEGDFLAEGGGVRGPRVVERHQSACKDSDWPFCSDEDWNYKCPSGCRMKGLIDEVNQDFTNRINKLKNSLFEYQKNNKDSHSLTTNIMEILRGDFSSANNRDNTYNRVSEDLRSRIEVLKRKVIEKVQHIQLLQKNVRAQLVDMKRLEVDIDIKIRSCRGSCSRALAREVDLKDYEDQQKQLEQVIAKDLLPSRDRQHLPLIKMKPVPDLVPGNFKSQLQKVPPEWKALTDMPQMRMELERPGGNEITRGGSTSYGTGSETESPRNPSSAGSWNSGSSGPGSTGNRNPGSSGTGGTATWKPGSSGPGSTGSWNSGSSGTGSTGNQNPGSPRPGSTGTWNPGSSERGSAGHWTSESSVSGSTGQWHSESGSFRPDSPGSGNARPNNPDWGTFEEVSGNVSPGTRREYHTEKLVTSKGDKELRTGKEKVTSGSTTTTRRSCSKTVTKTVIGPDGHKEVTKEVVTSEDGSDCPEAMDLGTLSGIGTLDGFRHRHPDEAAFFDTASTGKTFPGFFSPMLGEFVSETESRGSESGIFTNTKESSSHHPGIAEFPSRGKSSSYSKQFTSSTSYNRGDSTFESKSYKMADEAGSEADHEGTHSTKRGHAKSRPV
T3 sequence (looked up) 2: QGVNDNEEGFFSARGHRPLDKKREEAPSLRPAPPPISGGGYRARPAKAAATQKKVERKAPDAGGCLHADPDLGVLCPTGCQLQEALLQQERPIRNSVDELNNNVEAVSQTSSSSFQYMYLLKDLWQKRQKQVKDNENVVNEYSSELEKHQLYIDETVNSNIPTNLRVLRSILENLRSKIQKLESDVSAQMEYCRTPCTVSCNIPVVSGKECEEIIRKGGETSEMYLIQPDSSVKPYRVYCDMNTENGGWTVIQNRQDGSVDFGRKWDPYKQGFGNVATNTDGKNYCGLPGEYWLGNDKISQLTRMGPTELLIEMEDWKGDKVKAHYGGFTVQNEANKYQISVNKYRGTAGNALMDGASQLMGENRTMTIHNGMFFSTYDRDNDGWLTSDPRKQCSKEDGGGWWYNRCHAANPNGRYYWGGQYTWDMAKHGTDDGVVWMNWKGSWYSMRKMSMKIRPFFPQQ
T3 sequence (looked up) 3: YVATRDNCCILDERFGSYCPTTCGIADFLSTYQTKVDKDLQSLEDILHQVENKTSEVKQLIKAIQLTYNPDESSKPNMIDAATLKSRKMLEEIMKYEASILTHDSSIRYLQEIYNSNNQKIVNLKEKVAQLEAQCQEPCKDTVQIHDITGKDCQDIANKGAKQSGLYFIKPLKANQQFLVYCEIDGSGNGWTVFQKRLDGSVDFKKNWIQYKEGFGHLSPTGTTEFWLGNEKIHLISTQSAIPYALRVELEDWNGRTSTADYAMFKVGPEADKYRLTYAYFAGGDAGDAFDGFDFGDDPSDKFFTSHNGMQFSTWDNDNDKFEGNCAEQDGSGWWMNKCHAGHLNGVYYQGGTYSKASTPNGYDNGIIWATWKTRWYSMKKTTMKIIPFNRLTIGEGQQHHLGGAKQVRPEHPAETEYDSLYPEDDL

T4: Sulfotyrosine CCR2b biotin peptide (human)
T4 construct: also called CCR2b peptide
T4 peptide: TTFFD[sY]D[sY]GAPSHGGK(Biotin)

T5: Recombinant human PSGL-1(ECD)-hFc1 (R&D Systems, Cat. 3345-PS) (human, UniProt Q14242 42-305)
T5 construct: Bought; Gln42-Val295 counted on AAC50061; also called PSGL-1-Fc; PSGL-1-hFc1 chimera; not shown: human IgG1 Fc, Pro100-Lys330
T5 sequence: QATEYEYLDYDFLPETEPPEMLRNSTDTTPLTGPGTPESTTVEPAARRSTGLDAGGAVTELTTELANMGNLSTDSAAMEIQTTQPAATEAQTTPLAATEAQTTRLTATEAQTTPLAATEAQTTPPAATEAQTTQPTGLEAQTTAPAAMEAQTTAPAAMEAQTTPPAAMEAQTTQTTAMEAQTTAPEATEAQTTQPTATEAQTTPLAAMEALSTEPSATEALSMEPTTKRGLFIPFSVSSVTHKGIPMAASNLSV

T6: SulfoCCK biotin peptide (human)
T6 construct: also called sulfotyrosine CCK peptide
T6 peptide: SHRISDRD[sY]MGWMDFGGK(Biotin)

T7: Sulfotyrosine D6 biotin peptide (human)
T7 construct: also called D6 peptide
T7 peptide: ENSSFY[sY][sY]D[sY]LDEVAFGGK(Biotin)

B1: 18F02 (antibody, V domains shown)
VH: QVQLQQPGAELVKPGASVKLSCKASGYTFTSYWMHWVKQRPGQGLEWIGMIHPNSGRTNYNEKFKSKATLTVDKSSSTAYMQLSSLTSEDSAVYYCARSDYWGQGTTLTVSS
VL: DIVMTQAAFSNPVTLGTSASISCRSSKSLLHSDGITYLYWFLQRPGQSPQLLIYRMSNLASGVPDRFSGSGSGTDFTLRISRVEAEDVGVYYCAQMLEFPRTFGGGTKLEIK
notes: From mouse immunisation; only variable domains given
B2: 19I01 (antibody, V domains shown)
VH: EVQLVESGGGLVKPGGSRKLSCAASGFTFSDYGMHWVRQAPEKGLEWVAYISSGSSTIYYADTVKGRFTISRDNAKNTLFLQMTSLRSEDTAMYYCARGVDGYWGQGTTLTVSS
VL: DVVMTQTPLSLPVSLGDQASISCRSSQSLVHSNGNTYLHWYLQKPGQSPKFLIYKVSNRFSGVPDRFSGSGSGTDFTLKISRVEAEDLGVYFCSQTTHVPLTFGAGTKLELK
notes: From mouse immunisation; only variable domains given; also called 19101
B3: 16L15 (antibody, V domains shown)
VH: DVKLVESGGGLVKLGGSLKLSCAASGFTFSSYYMSWVRQTPEKRLEWVATISNGGGSTYYPDSVKDRFTISRDNAKNTLYLQMSSLNSEDTAVYYCAKPLYYSNPWFAYWGQGTLVTVSA
VL: DVLLTQTPLSLPVSLGDQASISCRSSQSIVHSNGNTYLEWYLQKPGQSPKLLIYKVSNRFSGVPDRFSGSGSGTDFTLKISRVEAEDLGVYYCFQGSHVPRTFGGGTKLEIK
notes: as for B1
B4: 05E08 (antibody, IgG4, V domains shown)
VH: EVQLVQSGGGVVQPGRSLRLSCAASGFTFSTYAMHWVRQAPGKGLEWVAVISYDGSNKYYADSVKGRFTISRDNSRNTLFLQMNSLRDEDTAVYYCAKRGTMIRGERSLDFWGQGTLVTVSS
VL: AIQMTQSPSFLSASVGDRVTITCRASQGINSWLAWYQQKPGTAPNLLIHAASTLQSGVPSRFSGSRSGTEFTLTISSLQPEDFATYYCQQLQSYPLTFGQGTRLEIK
B5: 03F03 (antibody, V domains shown)
VH: QVQLQESGPGLVKPSETLSLTCTVSGGSISSSSYYWGWIRQPPGKGLEWIGSIYYSGSTYYNPSLKSRVTISVDTSKNQFSLKLSSVTAADTAVYYCARSRPRPWAFDIWGQGTMVTVSS
VL: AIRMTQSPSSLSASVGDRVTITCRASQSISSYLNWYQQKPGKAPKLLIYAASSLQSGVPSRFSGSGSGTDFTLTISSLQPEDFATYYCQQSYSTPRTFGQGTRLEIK
B6: 07E07 (antibody, IgG4, V domains shown)
VH: QVQLQQSGAEVKKPGASVKVSCKASGYTFTSYYMHWVRQAPGQGLEWMGIINTSSGSTKYAQRFQDRVTVTRDTSTTTVYMELNSLRSEDTAVYYCARGGRAYSGSFDNWGQGTLVTVSS
VL: DVVMTQSPLSLPVTLGQPASISCRSSQSLVHRDGNTYFNWFQQRPGQSPRRLIYKVSNRDSGVPDRFSGSGSGTDFTLKISRVEAEDVGVYYCMQATHWPRTFGQGTKVEIK
B7: 2E12 (antibody, V domains shown)
VH: QVQLQQSGAELARPGASVKLSCKASGYTFTNYGLNWVKQRTGQGLEWIGEIYPRSGNTYYNEKFKGKATLTADKSSSTAYMQLSSLTSEDSAVYFCATEGAYWGQGTLVTVSA
VL: DIVMTQTPLTLSVTIGQPASISCKSSQSLLHGNGKTYLNWLLQRPGQSPKLLIYLVSKLESGIPDRFSGSGSGTDFTLEISRVEAEDLGIYYCLQSTHFPRTFGGGTKLEIK
notes: Mouse hybridoma mAb; only variable domains given
B8: 5E12 (antibody, V domains shown)
VH: EIQLQQSGAELVRPGASVKLSCTASGFNIKDDYIHWVKQRPEQGLEWIGRIDPANGNTKSAPKFQDKATITADTSSNTAYLHLSSLTSEDTAVYYCSIRFAYWGQGTLVTVSA
VL: DVVMTQTPLSLSVSLGDQASISCRSSQSLVYRNGDTYLHWFLQKPGQSPKLLIYKVSNRFSGVPDRFSGSGSGTDFTLKISRVEAEDLGIYFCSQNTHVPYTFGGGTKLEIK
notes: as for B7

Biological target: T1, Sulfotyr fibrinogen γ peptide
Test: ELISA, 50 nM mAb
Description: (§1) Recombinant PSGL-1-hFc1 chimera protein consisting of PSGL-1's extracellular domain (ECD) served as a positive control. […] Primary antibody was added (25 ul per well) in duplicate at 50 nM in assay buffer (blocking buffer containing 0.05% Tween®20) into test and control (just blocked) wells and the plate incubated for 45 min at 37° C.

binding normalized to PSGL-1	binding result	Binder
0.21	–	B1
-0.01	no binding (tested: 50 nM)	B2
0.11	–	B3
1.05	–	B4
1.33	–	B5
1.04	–	B6
0.76	–	B7
0.03	–	B8

Biological target: T2, SulfoTyr C4 peptide
Test: ELISA, 50 nM mAb
Description: as §1

binding result	binding normalized to PSGL-1	Binder
no binding (tested: 50 nM)	–	B1
no binding (tested: 50 nM)	-0.01	B2
no binding (tested: 50 nM)	0.01	B3
–	1	B4
–	1.19	B5
–	0.97	B6
–	0.03	B7
–	0.03	B8

biological target: T3, Human fibrinogen protein (ThermoFisher, …); test: ELISA, 50 nM mAb
Description: as §1

binding normalized to PSGL-1	binding result	Binder
0.01	no binding (tested: 50 nM)	B1
-0.01	no binding (tested: 50 nM)	B2
–	no binding (tested: 50 nM)	B3
0.44	–	B4
0.23	–	B5
0.29	–	B6
1.3	–	B7
0.03	–	B8

Biological target: T4, Sulfotyrosine CCR2b biotin peptide
Test: ELISA, 50 nM mAb
Description: as §1

binding normalized to PSGL-1	binding result	Binder
0.03	–	B1
0.02	no binding (tested: 50 nM)	B2
0.03	–	B3
0.85	–	B4
1.21	–	B5
0.75	–	B6
0.03	–	B7
0.03	–	B8

biological target: T5, Recombinant human PSGL-1(ECD)-hFc1 (R&D …); test: ELISA, 50 nM mAb
Description: as §1

A450nm [A450nm]	Binder
2.33	B1
2.33	B2
2.33	B3
2.46	B4
2.12	B5
2.44	B6
1.99	B7
2.05	B8

Biological target: T6, SulfoCCK biotin peptide
Test: ELISA, 50 nM mAb
Description: as §1

binding normalized to PSGL-1	Binder
0.85	B4
0.96	B5
0.75	B6

Biological target: T7, Sulfotyrosine D6 biotin peptide
Test: ELISA, 50 nM mAb
Description: as §1

binding normalized to PSGL-1	binding result	Binder
0.09	–	B1
0.02	no binding (tested: 50 nM)	B2
0.06	–	B3
0.06	–	B7
0.03	–	B8

biological target: T8, Human complement C4 protein (Millipore Sigma, Cat. 204886) (human, UniProt P0C0L4 20-675; P0C0L4 680-1446; P0C0L4 1454-1744, limits assumed, natural sulfotyrosines); test: ELISA, 50 nM mAb
T8 construct: mature
Description: as §1

T8 sequence (P0C0L4 20-675 limits assumed, form in doubt, chain 1 of 3): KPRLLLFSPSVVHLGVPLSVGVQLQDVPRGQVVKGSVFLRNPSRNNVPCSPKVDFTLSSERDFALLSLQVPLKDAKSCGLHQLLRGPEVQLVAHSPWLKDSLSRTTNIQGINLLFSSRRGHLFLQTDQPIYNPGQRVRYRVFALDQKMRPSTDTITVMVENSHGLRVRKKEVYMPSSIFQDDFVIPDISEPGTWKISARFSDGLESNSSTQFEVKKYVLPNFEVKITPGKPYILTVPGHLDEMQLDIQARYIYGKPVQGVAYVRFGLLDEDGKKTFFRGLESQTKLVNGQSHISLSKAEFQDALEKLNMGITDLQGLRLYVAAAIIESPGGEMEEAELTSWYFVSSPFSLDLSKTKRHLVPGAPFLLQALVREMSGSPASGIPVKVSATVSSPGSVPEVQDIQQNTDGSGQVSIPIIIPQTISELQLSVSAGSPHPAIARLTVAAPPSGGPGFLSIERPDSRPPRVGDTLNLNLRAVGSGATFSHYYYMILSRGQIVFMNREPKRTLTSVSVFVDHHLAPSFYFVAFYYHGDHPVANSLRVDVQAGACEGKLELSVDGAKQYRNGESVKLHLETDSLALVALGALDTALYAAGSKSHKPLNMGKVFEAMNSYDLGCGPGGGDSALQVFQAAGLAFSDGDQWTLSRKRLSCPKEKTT
T8 sequence (P0C0L4 680-1446 limits assumed, form in doubt, chain 2 of 3): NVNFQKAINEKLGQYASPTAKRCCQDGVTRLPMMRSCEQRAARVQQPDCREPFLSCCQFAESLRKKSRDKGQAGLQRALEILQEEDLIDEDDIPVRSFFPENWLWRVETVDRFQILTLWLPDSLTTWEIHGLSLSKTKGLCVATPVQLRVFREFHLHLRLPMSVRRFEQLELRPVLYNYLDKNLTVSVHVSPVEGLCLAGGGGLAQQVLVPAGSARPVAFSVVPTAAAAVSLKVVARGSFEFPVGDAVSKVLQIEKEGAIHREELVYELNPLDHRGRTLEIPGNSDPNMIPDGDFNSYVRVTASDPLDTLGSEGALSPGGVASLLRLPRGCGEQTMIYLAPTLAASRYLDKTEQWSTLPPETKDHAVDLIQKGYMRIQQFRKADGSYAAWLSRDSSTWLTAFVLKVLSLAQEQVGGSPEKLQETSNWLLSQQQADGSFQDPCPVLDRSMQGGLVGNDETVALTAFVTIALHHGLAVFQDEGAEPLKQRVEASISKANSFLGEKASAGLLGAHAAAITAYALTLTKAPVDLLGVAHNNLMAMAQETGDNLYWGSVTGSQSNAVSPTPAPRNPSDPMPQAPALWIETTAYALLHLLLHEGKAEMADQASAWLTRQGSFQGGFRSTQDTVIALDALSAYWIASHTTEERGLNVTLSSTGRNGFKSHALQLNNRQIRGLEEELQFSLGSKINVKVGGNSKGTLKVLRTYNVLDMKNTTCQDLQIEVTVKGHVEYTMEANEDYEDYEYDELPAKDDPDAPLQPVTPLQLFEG
T8 sequence (P0C0L4 1454-1744 limits assumed, form in doubt, chain 3 of 3): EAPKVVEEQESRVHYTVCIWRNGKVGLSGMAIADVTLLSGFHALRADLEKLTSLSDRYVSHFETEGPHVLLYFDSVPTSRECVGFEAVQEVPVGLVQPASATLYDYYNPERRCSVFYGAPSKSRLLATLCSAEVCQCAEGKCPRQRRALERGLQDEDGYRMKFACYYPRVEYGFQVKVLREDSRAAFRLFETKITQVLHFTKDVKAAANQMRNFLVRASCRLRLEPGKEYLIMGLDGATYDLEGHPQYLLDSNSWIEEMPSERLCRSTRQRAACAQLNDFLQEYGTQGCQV

binding normalized to PSGL-1	Binder
0.03	B1
-0.01	B2
0.02	B3
1.04	B4
1.35	B5
1.04	B6
0.1	B7
0.03	B8
